Data set [1] relates to RAR/RXR endogenous retinoic acid receptors (Mus musculus). As to the kind of experiment: cell_activity. The settings on record: P19 cells, 10^-7 M retinoic acid; 0.49 without retinoic acid; 61.95 with 100 uM KLGFFKR.
Data set [2] deals with Androgen receptor DNA-binding domain (Rattus norvegicus, UniProt P15207 P15207:541-614). As to the kind of experiment: EMSA. The settings on record: tags: GST fusion (pGEX-3X); label: 32P. Here is the method:
As described in Rennie et al., 1993, DNA binding domain of recombinant rat androgen receptor was prepared as a GST-fusion protein using the pGEX-3X vector and purified by glutathione-agarose affinity chromatography. p60 (calreticulin) was purified by affinity chromatography on KLGFFKR-sepharose, followed by gel electrophoresis as described in detail in Rojiani et al., 1991. […] Recombinant calreticulin (GST-fusion protein) was prepared as described by Baksh and Michalak, 1991. Gel retardation assays were carried out as described by Rennie et al., 1993. To analyze the effect of p60, or recombinant calreticulin, on receptor-DNA binding activity, the AR was pre-incubated with p60 for 30 min at 4° C. To analyze the effects of synthetic peptides, anti-calreticulin antibody, and non-immune IgG on p60 inhibition of AR-ARE binding, the peptide, antibody or IgG were pre-incubated with p60 for 30 min at 4° C. The androgen receptor preparation was then added to these mixtures and further incubated for 30 min at 4° C.
Affinity purified DNA binding domain of the recombinant rat androgen receptor (AR) was pre-incubated with or without the indicated concentrations of purified p60 at 4° C. for 30 min. After this pre-incubation the reaction mixtures were incubated with ³²P-labeled 26 base pair ARE (Rennie et al., 1993) (androgen response element), and analyzed by gel retardation assay. […]
(In general: A gel shift assay detects complexes by their altered migration in electrophoresis.)

Sequence of Androgen receptor DNA-binding domain (P15207 541-614, one chain of several): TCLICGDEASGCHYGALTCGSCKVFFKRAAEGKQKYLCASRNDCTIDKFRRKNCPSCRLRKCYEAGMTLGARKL

Molecule “bRARE (RAR-beta upstream 32 bp RARE, luciferase reporter)” had an activity (corrected luc/bgal) in data set [1] of 25.7.

B1: ARE, rat probasin promoter -115 to -140 (dsDNA)
DNA 1: GTAAAGTACTCCAAGAACCTATTTGT
DNA 2: ACAAATAGGTTCTTGGAGTACTTTAC
B1: in data set [2], the binding result is reported as “binds”.

Source of the values: patent publication US20030060613, “Novel use of calreticulin in modulating hormone responsiveness and new pharmaceuticals for treating cancer, osteoporosis and chronic inflammatory disease” (published 2003).
